Patent publication US20230265192A1 (GIGAGEN, published 2023)

B1: antibody A5 (L5H5) (antibody, V domains shown)
VH: QVQLVESGGGVVQPGRSLRLSCAASGFTFSSYGMHWVRQAPGKGLEWVAVIWYDGNNKYYADSVKGRFTISRDNSKNTLYLQMYSLRAEDTAVYYCARGGILAAGIFDYWGQGTLVTVSS
VL: EIVLTQSPGTLSLSPGDRATLSCRASQSGSSSYLAWYQQKPGQAPRLLIYGASSRATGIPDRFSGSGSGTDFTLTISRLEPEDFAVYYCQQYGTSPFTSGPGTKVDIK
notes: also called aCTLA-4.28; CTLA4.A5
B2: antibody A7 (L7H7) (antibody, V domains shown)
VH: QVQLVESGGGVVQPGRSLRLSCAASGFTLSSFGMHWVRQAPGKGLEWVAVIWYDGSNKYYADSVKGRFIISRDNSKTALYLQMNSLRAEDTAVYYCARAHYFGAFDIWGQGTMVTVSS
VL: not shown
notes: also called aCTLA-4.3; CTLA4.A7
B3: antibody A2 (L2H2) (antibody, V domains shown)
VH: QVQLVESGGGVVQPGRSLRLSCAASGFTFSNYGMNWVRQAPGKGLEWVAVIWYDGRNKHYADSVKGRFTISRDNSKNTLYLQMNSLRAEDTAVYYCARGGDWGPYFDYWGQGTLVTVSS
VL: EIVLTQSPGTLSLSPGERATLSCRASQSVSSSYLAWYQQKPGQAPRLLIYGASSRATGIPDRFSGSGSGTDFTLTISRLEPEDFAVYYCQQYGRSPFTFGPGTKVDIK
notes: also called aCTLA-4.4; CTLA4.A2

Each binder was assayed against T1, CD27 on CHO cells (UniProt P26842 20-260, limits assumed) (assay: flow cytometry, mixed CTLA-4+ and CD27+ CHO cells).
T1 construct: whole, on cells; also called CD27+ CHO cells; irrelevant antigen (CD27)
T1 sequence (P26842 20-260 limits assumed): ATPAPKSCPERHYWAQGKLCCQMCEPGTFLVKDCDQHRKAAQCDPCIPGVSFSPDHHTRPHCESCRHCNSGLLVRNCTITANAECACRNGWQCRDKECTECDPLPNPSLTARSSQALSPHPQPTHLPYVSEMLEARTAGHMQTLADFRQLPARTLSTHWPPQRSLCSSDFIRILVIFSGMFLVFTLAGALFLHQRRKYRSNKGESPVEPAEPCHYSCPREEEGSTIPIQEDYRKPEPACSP
In short: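 CHO cells stably expressing human CTLA-4 mixed with CD27-expressing CHO cells, then incubated with 10 μg/mL mAb for 30 min at 4 °C. Bound mAb detected with PE anti-human IgG Fc, CD27 cells gated by FITC anti-CD27; cells fixed in 4% paraformaldehyde before flow cytometry.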

binding result	Binder
no binding (tested: 10 µg/mL)	B1
no binding (tested: 10 µg/mL)	B2
no binding (tested: 10 µg/mL)	B3

What follows are binders tested against T1, CD27 on CHO cells (assay: flow cytometry, 10 µg/mL mAb, geometric MFI).

MFI of CD27+ CHO cells	Binder
17.2	B1
15.3	B2
11.7	B3

The binders below were run against T2, human CTLA-4 expressed on the cell surface (human, UniProt P16410 36-223) (assay: flow cytometry, 10 µg/mL mAb, geometric MFI).
T2 construct: CHO cells stably expressing human CTLA-4; also called hCTLA-4; CTLA-4+ CHO cells
T2 sequence (P16410 36-223 limits assumed): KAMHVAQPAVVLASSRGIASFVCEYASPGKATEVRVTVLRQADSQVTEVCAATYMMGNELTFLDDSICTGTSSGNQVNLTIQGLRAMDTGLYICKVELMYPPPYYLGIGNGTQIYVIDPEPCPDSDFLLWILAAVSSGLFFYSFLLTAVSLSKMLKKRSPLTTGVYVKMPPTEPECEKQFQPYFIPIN

MFI of CTLA-4+ CHO cells	Binder
1030	B1
854	B2
1120	B3

What follows are binders tested against T3, His-tagged human CTLA-4 (CT4-H5229; Acro Biosystems) (human, UniProt P16410 36-161) (assay: SPR (Carterra)).
T3 construct: bought soluble protein; also called soluble human CTLA-4; recombinant human CTLA-4; not shown: His tag
T3 sequence (P16410 36-161 limits assumed): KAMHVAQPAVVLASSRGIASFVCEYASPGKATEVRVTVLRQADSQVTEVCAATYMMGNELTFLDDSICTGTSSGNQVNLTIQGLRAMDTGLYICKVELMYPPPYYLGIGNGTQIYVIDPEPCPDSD
In short: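 mAb supernatants captured, at two densities, on an anti-human IgG Fc lawn. His-tagged human CTLA-4 injected at 1.95, 7.8, 31.25, 125 and 500 nM in HBS-EPC pH 7.4 with 1.0 mg/mL BSA, as a non-regenerative series with 5-min association and 15-min dissociation. Double-referenced data fitted for ka, kd and KD.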

Kd [nM]	koff [s⁻¹]	kon [M⁻¹ s⁻¹]	Binder
4.6	0.00042	90000	B1
5.7	0.00036	64000	B2
5.1	0.00052	100000	B3

The binders below were run against T4, recombinant human CTLA-4-Fc (7268-CT, R&D Systems) (human, UniProt P16410 36-162) (assay: blocking ELISA, plate rhCTLA4-Fc, competitor rhCD80-His).
T4 construct: bought; also called rhCTLA-4-Fc; rhCTLA4-Fc; Fc part of the bought chimera not given
T4 sequence (P16410 36-162): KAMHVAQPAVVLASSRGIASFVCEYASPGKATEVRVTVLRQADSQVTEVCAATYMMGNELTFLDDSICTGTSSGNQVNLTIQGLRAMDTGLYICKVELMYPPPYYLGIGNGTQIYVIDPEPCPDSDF
Procedure: Plates were coated with rhCTLA4-Fc and then blocked with 1×PBST with 5% w/v nonfat dry milk. After blocking a dilution series of the indicated antibody was added to the plate.

CD80 % inhibition [%]	EC50 [µg/mL]	Binder
96.3	0.0705	B1
92.1	0.996	B2
95.4	0.101	B3
